2 proteins from US20020168372A1 (published 2002) can be followed below.

This data set deals with the molecule itself. Put plainly: self-assembly; CsCl gradient and TEM.

B1: HPV16 L1 protein of clone P114/16/11 (114/K) (other)
chain: MSLWLPSEATVYLPPVPVSKVVSTDEYVARTNIYYHAGTSRLLAVGHPYFPIKKPNNNKILVPKVSGLQYRVFRIHLPDPNKFGFPDTSFYNPDTQRLVWACVGVEVGRGQPLGVGISGHPLLNKLDDTENASAYAANAGVDNRECISMDYKQTQLCLIGCKPPIGEHWGKGSPCTNVAVNPGDCPPLELINTVIQDGDMVDTGFGAMDFTTLQANKSEVPLDICTSICKYPDYIKMVSEPYGDSLFFYLRREQMFVRHLFNRAGTVGENVPDDLYIKGSGSTANLASSNYFPTPSGSMVTSDAQIFNKPYWLQRAQGHNNGICWGNQLFVTVVDTTRSTNMSLCAAISTSETTYKNTNFKEYLRHGEEYDLQFIFQLCKITLTADVMTYIHSMNSTILEDWNFGLQPPPGGTLEDTYRFVTSQAIACQKHTPPAPKEDPLKKYTFWEVNLKEKFSADLDQFPLGRKFLLQAGLKAKPKFTLGKRKATPTTSSTSTTAKRKKRKL
notes: Differs from prototype L1 only by His202Asp; Expressed in Sf-9 insect cells; self-assembles into VLP; also called 114K-L1; 114/K-L1
For B1, the binding result is reported as “binds”.

B2: HPV16 L1 protein of clone P114/16/2 (114/B) (other)
chain: MSLWLPSEATVYLPPVPVSKVVSTDEYVARTNIYYHAGTSRLLAVGHPYFPIKKPNNNKILVPKVSGLQYRVFRIHLPDPNKFGFPDTSFYNPDTQRLVWACVGVEVGRGQPLGVGISGHPLLNKLDDTENASAYAANAGVDNRECISMDYKQTQLCLIGCKPPIGEHWGKGSPCTNVAVNPGDCPPLELINTIIQDGDMVDTGFGAMDFTTLQANKSEVPLDICTSICKYPDYIKMVSEPYGDSLFFYLRREQMFVRHLFNRAGAVGENVPDDLYIKGSGSTANLASSNYFPTPSGSMVTSDAQIFNKPYWLQRAQGHNNGICWGNQLFVTVVDTTRSTNMSLCAAISTSETTYKNTNFKEYLRHGEEYDLQFIFQLCKITLTADVMTYIHSMNSTILEDWNFGLQPPPGGTLEDTYRFVTSQAIACQKHTPPAPKEDPLKKYTFWEVNLKEKFSADLDQFPLGRKFLLQAGLKAKPKFTLGKRKATPTTSSTSTTAKRKKRKL
notes: Differs from prototype L1 by Val194Ile, His202Asp and Thr266Ala; Expressed in Sf-9 insect cells; self-assembles into VLP
Consider B2, for which the binding result is recorded as “binds”.
